Biological target: T1, VTN (vitronectin) (Homo sapiens (Human), UniProt P04004)
T1 chain: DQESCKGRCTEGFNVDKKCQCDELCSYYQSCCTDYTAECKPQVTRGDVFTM
Experiment: SPR; Mg2+/Ca2+/Mn2+ buffer, 37 °C 1 mM MgCl2, 1 mM CaCl2, 2 mM MnCl2 in SPR buffer

B1: integrin αvβ3 (rhαvβ3) (protein)
chain 1: FNLDVDSPAEYSGPEGSYFGFAVDFFVPSASSRMFLLVGAPKANTTQPGIVEGGQVLKCDWSSTRRCQPIEFDATGNRDYAKDDPLEFKSHQWFGASVRSKQDKILACAPLYHWRTEMKQEREPVGTCFLQDGTKTVEYAPCRSQDIDADGQGFCQGGFSIDFTKADRVLLGGPGSFYWQGQLISDQVAEIVSKYDPNVYSIKYNNQLATRTAQAIFDDSYLGYSVAVGDFNGDGIDDFVSGVPRAARTLGMVYIYDGKNMSSLYNFTGEQMAAYFGFSVAATDINGDDYADVFIGAPLFMDRGSDGKLQEVGQVSVSLQRASGDFQTTKLNGFEVFARFGSAIAPLGDLDQDGFNDIAIAAPYGGEDKKGIVYIFNGRSTGLNAVPSQILEGQWAARSMPPSFGYSMKGATDIDKNGYPDLIVGAFGVDRAILYRARPVITVNAGLEVYPS
chain 2: GPNICTTRGVSSCQQCLAVSPMCAWCSDEALPLGSPRCDLKENLLKDNCAPESIEFPVSEARVLEDRPLSDKGSGDSSQVTQVSPQRIALRLRPDDSKNFSIQVRQVEDYPVDIYYLMDLSYSMKDDLWSIQNLGTKLATQMRKLTSNLRIGFGAFVDKPVSPYMYISPPEALENPCYDMKTTCLPMFGYKHVLTLTDQVTRFNEEVKKQSVSRNRDAPEGGFDAIMQATVCDEKIGWRNDASHLLVFTTDAKTHIALDGRLAGIVQPNDGQCHVGSDNHYSASTTMDYPSLGLMTEKLSQKNINLIFAVTENVVNLYQNYSELIPGTTVGVLSMDSSNVLQLIVDAYGKIRSKVELEVRDLPEELSLSFNATCLNNEVIPGLKSCMGLKIGDTVSFSIEAKVRGCPQEKEKSFTIKPVGFKDSLIVQVTFDCDCA
Kd: 997 nM

— paper PMC9800282 (2022)
